Assay [1] has as its target T1, extracellular domain of rhesus monkey BCMA (rhesus monkey, UniProt F7FFA0 1-53).
T1 construct: extracellular domain; also called RhBCMA
The assay can be described thus: Octet BLI; Fab 200 nM.

Assay [2] has as its target T2, extracellular domain of human BCMA (human, UniProt Q02223 1-54).
T2 construct: amine-linked to Octet AR2G tips; also called hsBCMA; BCMA (human)
T2 sequence: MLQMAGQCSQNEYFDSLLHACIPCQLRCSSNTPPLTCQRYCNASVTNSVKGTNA
As to the kind of experiment: Octet BLI; Fab 200 nM.

T1 sequence (F7FFA0 entry or part of it): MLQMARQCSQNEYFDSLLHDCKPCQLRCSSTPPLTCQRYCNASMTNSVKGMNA

B1: AB200-(2Vk8)_R2-CDR1-hs-v4 (Fab, V domains shown)
VH: QVQLVQSGAEVKKPGSSVKVSCKASGGTFSSYAISWVRQAPGQGLEWMGATYRSQSDTFYNQKFKSRVTITADKSTSTAYMELSSLRSEDTAVYYCARGAVYHGYDVIDNWGQGTLVTVSS
VL: DIQMTQSPSSLSASVGDRVTITCRASQSISSYINWYQQKPGKAPKLLIYATSNLQIGVPSRFSGSGSGTDFTLTISSLQPEDFATYYCQQFRKLPWSFGQGTKLEIKR
As to B1, the Kd stood at 773 nM in assay [1] and 591 nM in assay [2].

B2: AB200-(2Vk8)_R2-CDR2-hs-v2 (Fab, V domains shown)
VH: QVQLVQSGAEVKKPGSSVKVSCKASGGSFSNYWIHWVRQAPGQGLEWMGGIIPIFGTANYAQKFQGRVTITADKSTSTAYMELSSLRSEDTAVYYCARGAIFHGYDVIDNWGQGTLVTVSS
VL: DIQMTQSPSSLSASVGDRVTITCRASQSISSYINWYQQKPGKAPKLLIYATSNLQIGVPSRFSGSGSGTDFTLTISSLQPEDFATYYCQQFRKLPWSFGQGTKLEIKR
As for B2, the affinity in assay [2], expressed as Kd, was 151 nM.

One may read the Kd as the free concentration of one partner at which half of the binding sites on the other are occupied at equilibrium, for simple one-to-one binding.

Values taken from patent US20240327535A1 (EISAI R AND D MANAGEMENT, published 2024).
